Measurements as given in patent US20260250420A1 (SICHUAN KELUN BIOTECH BIOPHARMACEUTICAL, published 2026).

T1: human PTK7 on cells (tumor cells endogenously expressing PTK7); CHO-hPTK7, CHO-S-hPTK7 and 293T-hPTK7 … (human, UniProt Q13308 31-1070)
T1 construct: whole, on cells; The cell line of each value is named under assay; also called H1299; H358
T1 sequence (looked up): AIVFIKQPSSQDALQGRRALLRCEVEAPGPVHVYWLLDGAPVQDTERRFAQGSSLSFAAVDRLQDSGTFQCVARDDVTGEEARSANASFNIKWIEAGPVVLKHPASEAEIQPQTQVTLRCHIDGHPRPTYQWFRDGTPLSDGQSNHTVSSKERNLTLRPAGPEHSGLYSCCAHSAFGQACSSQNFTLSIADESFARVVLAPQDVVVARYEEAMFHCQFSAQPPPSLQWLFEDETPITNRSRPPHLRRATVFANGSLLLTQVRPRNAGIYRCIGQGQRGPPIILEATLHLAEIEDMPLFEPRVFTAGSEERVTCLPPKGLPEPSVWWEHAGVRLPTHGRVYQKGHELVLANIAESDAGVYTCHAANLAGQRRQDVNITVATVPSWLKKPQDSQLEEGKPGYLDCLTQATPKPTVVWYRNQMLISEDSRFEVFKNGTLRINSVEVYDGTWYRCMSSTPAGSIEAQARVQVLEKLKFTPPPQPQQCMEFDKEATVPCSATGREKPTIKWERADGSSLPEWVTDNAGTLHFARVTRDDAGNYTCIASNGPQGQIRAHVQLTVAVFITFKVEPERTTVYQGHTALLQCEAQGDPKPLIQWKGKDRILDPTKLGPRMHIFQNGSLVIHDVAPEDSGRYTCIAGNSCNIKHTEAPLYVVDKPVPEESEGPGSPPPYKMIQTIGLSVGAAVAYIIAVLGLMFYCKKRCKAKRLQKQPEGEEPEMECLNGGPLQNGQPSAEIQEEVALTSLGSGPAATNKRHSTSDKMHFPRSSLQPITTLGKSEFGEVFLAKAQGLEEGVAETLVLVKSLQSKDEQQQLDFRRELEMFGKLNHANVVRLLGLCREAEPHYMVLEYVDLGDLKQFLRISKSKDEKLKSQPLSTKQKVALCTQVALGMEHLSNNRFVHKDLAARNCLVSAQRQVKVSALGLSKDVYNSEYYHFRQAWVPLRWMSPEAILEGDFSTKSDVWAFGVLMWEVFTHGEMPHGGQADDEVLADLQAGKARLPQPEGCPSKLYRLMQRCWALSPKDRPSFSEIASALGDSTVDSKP

T2: human PTK7 protein (extracellular sequence of human PTK7 with C-terminal 6×His tag) (human, UniProt Q13308 31-704)
T2 construct: extracellular domain; Expressed transiently in HEK293 cells; also called human PTK7-His; human PTK7-His protein
T2 sequence: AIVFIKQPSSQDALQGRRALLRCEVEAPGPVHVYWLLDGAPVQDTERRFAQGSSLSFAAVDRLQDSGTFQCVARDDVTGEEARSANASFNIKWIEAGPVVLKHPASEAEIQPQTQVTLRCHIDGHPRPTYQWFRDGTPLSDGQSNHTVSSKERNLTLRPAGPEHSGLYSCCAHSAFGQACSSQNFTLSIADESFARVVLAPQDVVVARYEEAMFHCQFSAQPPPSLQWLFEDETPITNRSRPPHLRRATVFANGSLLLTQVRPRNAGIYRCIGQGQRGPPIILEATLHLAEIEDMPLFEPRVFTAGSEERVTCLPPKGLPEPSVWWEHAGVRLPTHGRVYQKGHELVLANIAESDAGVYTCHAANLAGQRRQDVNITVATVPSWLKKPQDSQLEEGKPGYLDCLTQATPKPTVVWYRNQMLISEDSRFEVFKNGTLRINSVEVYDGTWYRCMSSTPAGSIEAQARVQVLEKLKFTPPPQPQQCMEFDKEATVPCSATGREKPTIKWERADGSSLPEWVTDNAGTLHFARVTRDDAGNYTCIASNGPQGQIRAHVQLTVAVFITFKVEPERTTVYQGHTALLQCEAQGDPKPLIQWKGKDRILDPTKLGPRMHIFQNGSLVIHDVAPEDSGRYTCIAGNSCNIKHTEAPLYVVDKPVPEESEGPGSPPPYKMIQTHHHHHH

B1: 64A10HZ (anti-human PTK7 humanized antibody) (antibody, human IgG1, kappa, V domains shown)
VH: QVQLQESGPGLVKPSETLSLTCTVSGFSLTSYGVYWVRQPPGKGPEWLGVIWTSGNTNYNPSLKSRLTISKDNSKNQVSLKLSSVTAADTAVYYCVKHDGGNYVGVMNYWGQGTLVTVSS
VL: EIVMTQSPDFQSVTPKEKVTITCRASQSISDYLHWYQQKPDQSPKLLIKYASQSISGVPSRFSGSGSGSDFTLTINSLEAEDAATYYCQNGHSFPPTFGQGTKLEIKR
notes: Human IgG1 heavy chain constant region and human Kappa light chain constant region; expressed in CHO-S cells
B2: 101A6HZ (anti-human PTK7 humanized antibody) (antibody, human IgG1, kappa)
heavy: not shown
light: DIVMTQSPDSLAVSLGERATINCKASQDVGSAVIWYQQKPGQSPKLLIYWASTRHTGVPDRFSGSGSGTDFTLTISSLQAEDVAVYYCQQYSSYPLTFGQGTKLEIKRTVAAPSVFIFPPSDEQLKSGTASVVCLLNNFYPREAKVQWKVDNALQSGNSQESVTEQDSKDSTYSLSSTLTLSKADYEKHKVYACEVTHQGLSSPVTKSFNRGEC
B3: Hu24 (PTK7 control antibody, taken from Hu24 in the Patent CN201580030255) (antibody)
chain 1: QVQLVQSGPEVKKPGASVKVSCKASGYTFTDYAVHWVRQAPGKRLEWIGVISTYNDYTYNNQDFKGRVTMTRDTSASTAYMELSRLRSEDTAVYYCARGNSYFYALDYWGQGTSVTVSS
chain 2: EIVLTQSPATLSLSPGERATLSCRASESVDSYGKSFMHWYQQKPGQAPRLLIYRASNLESGIPARFSGSGSGTDFTLTISSLEPEDFAVYYCQQSNEDPWTFGGGTKLEIK

What follows are binders tested against T1, human PTK7 on cells (tumor cells …) (assay: flow cytometry on T47D cells).
Text: (§1) A flow cytometer (Beckman, Cytoflex) was used for detecting the affinity of the anti-human PTK7 chimeric and humanized antibodies with human non-small cell lung cancer cells H1299, human lung adenocarcinoma cells H1975, human breast cancer cells T47D, human ovarian cancer cells OVCAR-3 (all purchased from NANJING COBIOER BIOSCIENCES CO., LTD) and CHO-hPTK7 overexpression cells.
(§2) The adherent cells were digested by using a pancreatin (Gibco) solution; a proper amount of cells were counted and taken, washed twice by using 1×PBS, and re-suspended in a 1% BSA solution; and then the cells were transferred into a 96-well deep plate at a density of 50 μl/well; a candidate antibody was diluted by using 1% BSA, then 50 μl of diluted antibody was added into the deep plate containing the cells, and incubated for 40 min at 4° C.; the cells were washed twice by using PBS, then 50 μl of diluted secondary antibody was added into each well, uniformly mixed, and incubated for 30 min at 4° C.; and the cells were washed twice by using PBS, then re-suspended in 400 μl of PBS, and subjected to examination by flow cytometer.

EC50 [µg/mL] | Binder
0.217 | B1
0.0968 | B2
0.0861 | B3

The binders below were run against T1, human PTK7 on cells (tumor cells …) (assay: flow cytometry on H1975 cells).
Text: as §1, §2

EC50 [µg/mL] | Binder
0.0767 | B1
0.178 | B2
0.134 | B3

These binders were tested against T1, human PTK7 on cells (tumor cells …) (assay: flow cytometry on H1299 cells).
Text: as §1, §2

EC50 [µg/mL] | Binder
0.0475 | B1
0.0843 | B2
0.0649 | B3

These binders were tested against T2, human PTK7 protein (extracellular …) (assay: ELISA, coated human PTK7-His protein 1 µg/ml).
Procedure: The original data was imported into software for nonlinear curve fitting, and the EC₅₀ of binding of each antibody to the human PTK7 was calculated, respectively.

EC50 [µg/mL] | Binder
0.0155 | B1
0.0266 | B2
0.0466 | B3
